Assay results taken from US20200262898A1 (INTEGRAL MOLECULAR, published 2020).

T1: CD151 (UniProt P48509 1-253, limits assumed)
T1 construct: whole, on cells
T1 sequence (looked up): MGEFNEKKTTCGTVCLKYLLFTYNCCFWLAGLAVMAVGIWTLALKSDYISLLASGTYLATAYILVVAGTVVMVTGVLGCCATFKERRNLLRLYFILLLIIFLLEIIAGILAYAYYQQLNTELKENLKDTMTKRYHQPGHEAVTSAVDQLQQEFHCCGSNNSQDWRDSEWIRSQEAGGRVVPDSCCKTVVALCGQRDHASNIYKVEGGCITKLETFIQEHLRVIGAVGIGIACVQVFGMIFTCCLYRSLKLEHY

T2: IGSF8 (UniProt Q969P0 28-613, limits assumed)
T2 construct: whole, on cells
T2 sequence (looked up): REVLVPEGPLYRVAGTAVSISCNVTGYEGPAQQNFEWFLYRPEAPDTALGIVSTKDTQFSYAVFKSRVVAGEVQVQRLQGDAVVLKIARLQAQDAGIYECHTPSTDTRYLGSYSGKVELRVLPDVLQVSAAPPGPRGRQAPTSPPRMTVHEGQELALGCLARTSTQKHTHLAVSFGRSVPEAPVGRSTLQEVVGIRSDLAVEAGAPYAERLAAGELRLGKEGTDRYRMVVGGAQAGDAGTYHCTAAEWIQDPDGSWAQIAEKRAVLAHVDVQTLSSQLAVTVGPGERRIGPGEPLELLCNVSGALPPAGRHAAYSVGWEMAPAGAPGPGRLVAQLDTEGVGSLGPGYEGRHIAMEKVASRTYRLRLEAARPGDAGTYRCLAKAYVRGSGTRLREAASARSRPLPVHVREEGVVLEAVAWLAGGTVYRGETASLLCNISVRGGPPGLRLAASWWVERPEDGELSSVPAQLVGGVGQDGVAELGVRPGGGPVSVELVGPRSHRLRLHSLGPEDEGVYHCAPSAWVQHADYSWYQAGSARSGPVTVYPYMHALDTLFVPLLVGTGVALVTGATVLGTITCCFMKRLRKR

T3: CD81 (UniProt P60033 1-236, limits assumed)
T3 construct: whole, on cells
T3 sequence (looked up): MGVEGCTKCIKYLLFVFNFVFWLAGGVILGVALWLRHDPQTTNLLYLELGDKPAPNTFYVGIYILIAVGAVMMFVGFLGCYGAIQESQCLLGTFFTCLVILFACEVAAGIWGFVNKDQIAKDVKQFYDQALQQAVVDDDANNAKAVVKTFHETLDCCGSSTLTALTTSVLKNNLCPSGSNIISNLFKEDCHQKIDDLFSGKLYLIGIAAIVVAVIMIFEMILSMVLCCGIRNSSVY

B1: Antibody of common light chain B9 (B9chicken) paired with the heavy chain against CD151 (antibody, V domains shown)
VH: AVTLDESGGGLQMPGGALSLVCKASGFTFSSYGMEWVRQAPGKGLEWVAGISSGGGSTDYGTAVKGRATISRDNGQSTVRLQLNNLRAEDTGTYFCAKSAYGGTWDGDDIDAWGHGTEVIVSS
VL: ALTQPSSVSANPGETVKITCSGGGSSNYYGWYQQKSPGSAPVTLIYGTNKRPSDIPSRFSGSKSGSTGTLTITGVQADDEAVYFCGSADSSTNAGIFGAGTTLTVL
notes: also called HC-CD151
B2: Antibody of light chain D3 (D3chicken) paired with the heavy chain against CD151 (antibody, V domains shown)
VH: B1 VH
VL: ALTQPSSVSANPGETVKITCSGDDRWYGWYQQKSPGSAPVTLIYSNDKRPSDIPSRFSGSKSGSTGTLTITGVQADDEAVYFCGSRDSSYAGIFGAGTTLTVL
notes: also called HC-CD151
B3: Antibody of common light chain C11 (C11chicken) paired with the heavy chain against CD151 (antibody, V domains shown)
VH: B1 VH
VL: ALTQPSSVSANPGETVKITCSGGGSWYGSYYYGWYQQKSPGSAPVTLIYNNDKRPSDIPSRFSGSESGSTATLTITGVQAEDEAVYFCGGYDSTTTDMFGAGTTLTVL
notes: also called HC-CD151
B4: Antibody of light chain E1 (E1chicken) paired with the heavy chain against CD151 (antibody, V domains shown)
VH: B1 VH
VL: ALTQPSSVSANPGETVKITCSGSSGSGYYGWYQQKSPGSAPVTLIYDNDKRPSDIPSRFSGSKSGSTGTLTITGVQADDEAVYFCGSADNNYTGIFGAGTTLTVL
notes: also called HC-CD151
B5: Antibody of common light chain B9 (B9chicken) paired with the heavy chain against IGSF8 (antibody, V domains shown)
VH: AVTLDESGGGLQTPGGGLSLVCKASGFSISSYEMQWVRQAPGKGLEWVAGIDDDGSSRAYAPAVKGRATISRDNGQSTVRLQLNNLRAEDTGTYYCAKTIYAATLNAGEIDAWGHGTEVIVSS
VL: B1 VL
notes: also called HC-IGSF8
B6: Antibody of common light chain C11 (C11chicken) paired with the heavy chain against IGSF8 (antibody, V domains shown)
VH: B5 VH
VL: B3 VL
notes: also called HC-IGSF8
B7: Antibody of light chain E1 (E1chicken) paired with the heavy chain against IGSF8 (antibody, V domains shown)
VH: B5 VH
VL: B4 VL
notes: also called HC-IGSF8
B8: Antibody of light chain D3 (D3chicken) paired with the heavy chain against IGSF8 (antibody, V domains shown)
VH: B5 VH
VL: B2 VL
notes: also called HC-IGSF8
B9: Antibody of common light chain B9 (B9chicken) paired with the heavy chain against CD63 (antibody, V domains shown)
VH: AVTLDESGGGLQTPGGALSLVCKASGFTFSDRGMHWVRQAPGKGLEWVAGIRSTGSFTLYGAAVKGRATISRDDGQSTLRLQLNNLRAEDTGTYYCAKSAGGYGCGRGWCGVDDIDAWGHGTEVIVSS
VL: B1 VL
notes: also called HC-CD63
B10: Antibody of common light chain C11 (C11chicken) paired with the heavy chain against CD63 (antibody, V domains shown)
VH: B9 VH
VL: B3 VL
notes: also called HC-CD63
B11: Antibody of light chain D3 (D3chicken) paired with the heavy chain against CD63 (antibody, V domains shown)
VH: B9 VH
VL: B2 VL
notes: also called HC-CD63
B12: Antibody of light chain E1 (E1chicken) paired with the heavy chain against CD63 (antibody, V domains shown)
VH: B9 VH
VL: B4 VL
notes: also called HC-CD63
B13: Antibody of common light chain B9 (B9chicken) paired with the heavy chain against CD81 (antibody, V domains shown)
VH: AVTLDESGGGLQTPGGALSLVCKASGFSIGDYNMGWVRQAPGKGLEWVAGIDAGGGTWRATAVKGRATISRDNGQSTVRLQLNNLRAEDTATYFCAKSTDSSANCCANSIDAWGHGTEVIVSS
VL: B1 VL
notes: also called HC-CD81
B14: Antibody of common light chain C11 (C11chicken) paired with the heavy chain against CD81 (antibody, V domains shown)
VH: B13 VH
VL: B3 VL
notes: also called HC-CD81
B15: Antibody of light chain E1 (E1chicken) paired with the heavy chain against CD81 (antibody, V domains shown)
VH: B13 VH
VL: B4 VL
notes: also called HC-CD81
B16: Antibody of light chain D3 (D3chicken) paired with the heavy chain against CD81 (antibody, V domains shown)
VH: B13 VH
VL: B2 VL
notes: also called HC-CD81
B17: Antibody of common light chain B9 (B9chicken) paired with the heavy chain against CD147 (antibody, V domains shown)
VH: AVTLDESGGGLQTPGGGLSLVCKASGFTFSSYAMYWVRQAPGKGLQWVAGISRDGSSGRYGAAVKGRATISRDNGQSTVRLQLNNLRAEDTATYFCAKSGYGDYTSADEIDAWGHGTEVIVSS
VL: B1 VL
notes: also called HC-CD147
B18: Antibody of common light chain C11 (C11chicken) paired with the heavy chain against CD147 (antibody, V domains shown)
VH: B17 VH
VL: B3 VL
notes: also called HC-CD147

Molecular target: T1, CD151
Experiment: flow cytometry on cells transfected with the target; signal over mock-transfected cells (background = 1.0)
Description: (§1) Antibodies were generated using the common light chains B9, F10, C11, and H11 paired with 8 different heavy chains. […] Binding is expressed as Signal:Background for binding to the molecular target of the heavy chain antibody (listed at top of Table 4). Expression is based on binding to cells expressing an Fc-binding protein (the ZZ domain of ProA) (ZZ) on their surface, enabling total antibody to bind and be measured. Detection was using flow cytometry with cells transfected to express the target protein. Background binding S:B is normalized to 1.0, using mock-transfected cells as background. The data in the table below illustrate that the light chains can be used with a variety of heavy chains and the antibody generated from a VH that can bind to the light chains B9 and F10 will function and bind to the target of interest.

S:B Binding | Binder
27.4 S:B | B1
47.5 S:B | B2
1.4 S:B | B3
28.8 S:B | B4

Molecular target: T2, IGSF8
Experiment: as above
Description: as §1

S:B Binding | Binder
1.7 S:B | B5
5.5 S:B | B6
18.1 S:B | B7
19.4 S:B | B8

Molecular target: T4, CD63 (UniProt P08962 2-238, limits assumed)
T4 construct: whole, on cells
Experiment: as above
Description: as §1

S:B Binding | Binder
2.7 S:B | B9
0.8 S:B | B10
20.6 S:B | B11
31.8 S:B | B12

Molecular target: T3, CD81
Experiment: as above
Description: as §1

S:B Binding | Binder
0.6 S:B | B13
30.9 S:B | B14
1.5 S:B | B15
1.2 S:B | B16

Molecular target: T5, Fc-binding protein (the ZZ domain of ProA)
T5 construct: domain: ZZ domain of ProA; the construct is not described
Experiment: flow cytometry on cells expressing the Fc-binding ZZ domain on their surface; given as a measure of expression
Description: as §1

S:B Expression | Binder
9.7 S:B | B1
10.8 S:B | B13
6.5 S:B | B2
11.5 S:B | B3
17 S:B | B17
12.7 S:B | B5
11.3 S:B | B4
11.3 S:B | B9
12 S:B | B6
16.6 S:B | B18
9.8 S:B | B14
2 S:B | B7
8.8 S:B | B10
3.2 S:B | B8
1.7 S:B | B15
3.9 S:B | B11
1.8 S:B | B16
24.4 S:B | B12
